Source: patent US20250388664A1 (BIOARCTIC, published 2025)

How the values were obtained:
[1] = biological target: T1, hTfR1 (recombinant, construct not specified) (human, UniProt P02786 89-760, limits assumed); assay: BLI: IgG captured from hybridoma supernatant on anti-mouse capture sensors, 250 nM hTfR1 in solution, 120 s association, 90 s dissociation
T1 construct: also called biotinylated hTfR1
Protocol: Next, sensors with immobilized IgGs were briefly washed for 10 s before incubation in running buffer to establish a baseline signal. […] All proteins were diluted in running buffer. Target dissociation was measured by incubating the biosensors in running buffer for 90 s.

[2] = biological target: T2, ectodomain of human TfR1 (His10-hTfR1; SEQ ID NO:110) (human, UniProt P02786 89-760); assay: indirect ELISA: plate coated with 1 µg/ml hTfR1 ectodomain, mouse IgG titrated, anti-mouse IgG-HRP; x axis printed as 'TfR (ng/ml)'
T2 construct: also called ectodomain of hTfR1
Protocol: (§1) In the ELISA experiment, human, mouse or three different chimeric TfR1 receptors were used to coat ELISA plates (FIGS. 30A-30E). The ELISA protocol was slightly modified as follows from the indirect ELISA described in Example 15. […] The coated plates were then blocked. Dilution series of mouse IgG of the analyzed antibodies were prepared in PBS and incubated on the ELISA plates. Unbound antibodies were then washed off before incubating wells with a HRP-conjugated secondary, anti-mouse-IgG for 1 h. Plates were then washed again before addition of HRP substrate TMB for development and detection of antibody binding to the wells. TMB development was stopped by adding 0.5 M H₂SO₄ to the wells and ELISA responses measured as the OD at 450 nm in an ELISA plate reader.

[3] = biological target: T3, His10-hTfR1 (SEQ ID NO:109) (human, UniProt P02786 90-760); assay: ELISA, hybridoma supernatant
T3 construct: Recombinant, HEK293; also called His-tagged hTfR1; His-tagged hTfR

[4] = biological target: T4, h/m apical domain chimera (SEQ ID NO:112) (human/mouse chimera); assay: indirect ELISA: plate coated with 1 µg/ml h/m apical domain chimera, mouse IgG titrated, anti-mouse IgG-HRP; x axis printed as 'TfR (ng/ml)'
T4 construct: also called chimeric TfR1 consisting of human apical domain grafted on mouse TfR1 ectodomain
T4 chain: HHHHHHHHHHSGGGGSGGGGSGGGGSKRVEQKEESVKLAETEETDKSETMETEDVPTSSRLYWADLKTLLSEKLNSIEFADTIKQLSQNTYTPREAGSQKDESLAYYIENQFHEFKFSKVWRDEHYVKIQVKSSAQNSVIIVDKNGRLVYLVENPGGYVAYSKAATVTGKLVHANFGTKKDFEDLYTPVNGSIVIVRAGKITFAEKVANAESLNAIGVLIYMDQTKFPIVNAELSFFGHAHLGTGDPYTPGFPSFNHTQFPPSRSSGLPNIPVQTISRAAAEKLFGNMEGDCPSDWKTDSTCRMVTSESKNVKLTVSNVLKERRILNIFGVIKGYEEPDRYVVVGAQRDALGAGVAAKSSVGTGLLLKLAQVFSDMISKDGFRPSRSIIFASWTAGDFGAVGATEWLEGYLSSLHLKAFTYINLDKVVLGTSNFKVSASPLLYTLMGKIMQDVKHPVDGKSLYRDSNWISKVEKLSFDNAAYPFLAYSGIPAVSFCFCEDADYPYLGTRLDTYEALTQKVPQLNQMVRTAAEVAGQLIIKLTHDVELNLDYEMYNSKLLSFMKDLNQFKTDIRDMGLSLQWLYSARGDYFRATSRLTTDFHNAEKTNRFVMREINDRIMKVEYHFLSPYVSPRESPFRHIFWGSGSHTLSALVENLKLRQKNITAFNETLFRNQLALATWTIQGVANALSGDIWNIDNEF
Protocol: Plasma samples serially diluted from a starting dilution of 1/450 or hybridoma supernatants diluted 1/2 were added to the plates (50 μl/well; dilution buffer: PBS with 0.1% BSA and 0.05% TWEEN®-20) and incubated for 2 h at room temperature and then the plates were washed four times. […] After another wash (as above), 50 μl/well TMB substrate (K-Blue® Aqueous, Neogen) was added, and the reaction was stopped after 10-15 min with 50 μl/well of 0.5 M H₂SO₄. The optical density at 450 nm was read using a plate reader (Tecan). The endpoint titers were defined as the dilution above the average of the blank wells (background) plus 3 standard deviations of the blank wells.
as §1

[5] = biological target: T5, h/m helical domain chimera (SEQ ID NO:113) (human/mouse chimera, UniProt Q62351 90-763 (mouse entry)); assay: indirect ELISA: plate coated with 1 µg/ml h/m helical domain chimera, mouse IgG titrated, anti-mouse IgG-HRP; x axis printed as 'TfR (ng/ml)'
T5 construct: also called chimeric TfR1 consisting of human helical domain grafted on mouse TfR1 ectodomain
T5 chain: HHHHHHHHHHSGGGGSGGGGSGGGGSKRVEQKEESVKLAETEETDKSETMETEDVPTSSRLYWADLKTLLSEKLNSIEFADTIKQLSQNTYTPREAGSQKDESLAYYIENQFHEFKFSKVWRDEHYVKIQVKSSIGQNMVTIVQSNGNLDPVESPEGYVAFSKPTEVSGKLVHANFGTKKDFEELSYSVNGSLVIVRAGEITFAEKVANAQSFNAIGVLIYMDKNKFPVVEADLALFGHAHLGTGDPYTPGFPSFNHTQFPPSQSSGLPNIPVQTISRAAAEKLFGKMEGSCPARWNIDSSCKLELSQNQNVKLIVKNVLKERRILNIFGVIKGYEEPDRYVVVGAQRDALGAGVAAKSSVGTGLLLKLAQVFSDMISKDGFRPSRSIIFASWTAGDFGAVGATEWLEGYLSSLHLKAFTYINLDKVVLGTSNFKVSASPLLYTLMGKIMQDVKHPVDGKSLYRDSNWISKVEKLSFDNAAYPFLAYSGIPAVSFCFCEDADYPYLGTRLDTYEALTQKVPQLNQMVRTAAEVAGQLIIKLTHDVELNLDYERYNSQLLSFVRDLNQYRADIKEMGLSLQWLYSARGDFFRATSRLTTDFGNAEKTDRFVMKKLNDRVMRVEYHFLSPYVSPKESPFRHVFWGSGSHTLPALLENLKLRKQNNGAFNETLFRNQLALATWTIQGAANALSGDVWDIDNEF
Protocol: as §1

B1: 37D10 (antibody, V domains shown)
VH: QVQLQQSGAELVRPGTSVKISCKASGYAFTNYWLGWVKQRPGHGLEWIGDIFPGSDNTYYNEKFKGKATLTADKSSSTAYMQLSSLASEDSAVYFCARSGNFYAMDYWGQGTSVTVSS
VL: ENVLTQSPAIMSASPGEKVTMTCSASSSVNYMNWYQQKSSTFPKLWIYDTSKLASGVPGRFSGSGSGKFYSLTISSMEAEDVATYYCFQGSGYPFTFGSGTKLEIK
notes: also called mouse antibody 37D10; clone 37D10
binding result [1]: binds
binding result [2]: binds
binding result [3]: binds
binding result [4]: no binding (tested: about 600 ng/ml)
binding result [5]: no binding (tested: about 600 ng/ml)
